Measured values as given in patent US7364887B2, “Use of PAK inhibitor for the treatment of a joint disease” (Sanofi-Aventis Deutschland GmbH, priority 2003, dated 2008).

Key:
Type in all cases: cell-based, human
[1] = tested on: IL-1β induced expression of MMP13 in SW1353 cells; test: MMP13 protein in supernatants by ELISA after overexpression of PAK1-ID in SW1353 cells; conditions: SW1353 cells transfected with pCEP4_PAK1-ID vs void vector, ELISA of supernatant
Protocol: The PAK1 inhibitory domain was subcloned into the pCEP4 vector and transfected into SW1353 cells. Where indicated, IL-1β was used as a stimulus at a concentration of 10 ng/ml for 24 h. Supernatants were collected and the amount of MMP13 protein was determined by ELISA. Values are shown in arbitrary units and represent at least 3 independent results ±SD. The chequered column represents the experiments with the vector pCEP4 (void vector) and the black column represents the experiments with the vector pCEP4_PAK1-ID.
(§1) (Kozak sequence is underlined, hemagglutinin (HA) tag is in bold) and 5′-[…]-3′(SEQ ID NO: 12) (MWG, Biotech AG, Germany). […]
(§2) Cultures of human SW1353 chondrosarcoma were grown in Dulbecco's modified Eagles's medium (DMEM) containing 10% fetal calf serum (FCS) and penicillin/streptomycin (37° C., 5% CO2). […] The transfection efficiency was examined with a FACScan (Becton Dickinson Immunocytometry Systems, Inc., Mountain View, Calif., U.S.A.) and on an inverted fluorescence microscope. […]
(§3) Human embryonic kidney (HEK) 293 were maintained in Dulbecco's modified Eagle's medium supplemented with 10% fetal calf serum. […] Culture supernatant were removed and expression of IL-8 (R&D Systems, Inc., Minneapolis, Minn., U.S.A.), PGE2 (SpiBiom Inc.), and MMP-13 (Amersham Pharmacia Biotech, Inc.) was monitored by ELISA according to the procedure supplied by the manufacturer. […]

[2] = tested on: IL-1β induced expression of PGE2 in SW1353 cells; test: PGE2 in supernatants by ELISA after overexpression of PAK1-ID in SW1353 cells; conditions: SW1353 cells transfected with pCEP4_PAK1-ID vs void vector; IL-1β and TNFα both 10 ng/ml for 24 h; ELISA of supernatant
Protocol: The PAK1 inhibitory domain was subcloned into the pCEP4 vector and transfected into SW1353 cells. Cells were stimulated with a combination of IL-1β and TNFα both at a concentration of 10 ng/ml for 24 h. Supernatants were collected and the amount of MMP13 protein was determined by ELISA. Values in arbitrary units represent the mean of two experiments. The punctured column represents the experiments with no vector plus IL1β and TNFα. The chequered column represents the experiments with the vector pCEP4 (void vector) plus IL1β and TNFα. The black column represents the experiments with the vector pCEP4_PAK1-ID plus IL1β and TNFα. […]
as §2, §3

[3] = tested on: IL-1β induced expression of IL-8 in HEK293 cells; test: IL-8 protein in supernatants by ELISA after transient transfection of PAK1-ID in HEK293 cells; conditions: HEK293 cells transiently transfected with pCDNA3.1_PAK1-ID vs void vector; IL-1β 10 ng/ml, time course; ELISA of supernatant
Protocol: The PAK1 inhibitory domain subcloned into the pCDNA3.1 vector was transiently transfected into HEK293 cells. Cells were stimulated with IL-1β at a concentration of 10 ng/ml for the indicated time periods. Supernatants were collected and the amount of IL-8 protein was determined by ELISA. Values in arbitrary units represent the mean of two experiments. The circles represents the experiments with the vector pCDNA3.1_PAK1-ID plus IL-1β and the squares represent the experiments with the vector pCDNA3.1 (void vector) plus IL-1β.
as §1
Human embryonic kidney (HEK) 293 were maintained in Dulbecco's modified Eagle's medium supplemented with 10% fetal calf serum. […] Culture supernatant were removed and expression of IL-8 (R&D Systems, Inc., Minneapolis, Minn., U.S.A.), PGE2 (SpiBiom Inc.), and MMP-13 (Amersham Pharmacia Biotech, Inc.) was monitored by ELISA according to the procedure supplied by the manufacturer.
For the analysis of MMP13, IL-8 and PGE2 protein levels, supernatants of cell cultures were determined by ELISA for MMP13 (Amersham Pharmacia Biotech, Inc.), IL-8 (R&D Systems, Inc. Minneapolis, Minn., U.S.A.) and PGE2 (SpiBio) as described by the supplier. […]

B1: PAK1-ID: Autoinhibitory domain of PAK1, residues 83 to 149 (SEQ ID NO: 6), HA-tagged, overexpressed from pCEP4 or pcDNA3.1 vector in cells (protein, listed as Homo sapiens)
chain: HTIHVGFDAVTGEFTGMPEQWARLLQTSNITKSEQKKNPQAVLDVLEFYNSKKTSNSQKYMSFTDKS
modifications: HA tag
B1 was tested, and the “inhibition of the IL-1β-induced expression of MMP13” value ([1]; IL-1β 10 ng/ml for 24 h) was roughly 55%, the “inhibition of basal MMP13 secretion in non-stimulated cells” value ([1]; non-stimulated (no IL-1β)) was greater than 80% and the “inhibition of IL-1β induced expression of PGE2” value [2] was “more than 50%”. For the same molecule, the “effect on IL-1β induced expression of IL-8” value [3] was “represses the IL-1β induced expression of IL-8”.
